Measured values reported in PMC1074310.

Molecular target: T1, tumor necrosis factor receptor-associated factor 2 (TRAF2) fused to CFP, YFP or mRFP, Q12933
T1 chain: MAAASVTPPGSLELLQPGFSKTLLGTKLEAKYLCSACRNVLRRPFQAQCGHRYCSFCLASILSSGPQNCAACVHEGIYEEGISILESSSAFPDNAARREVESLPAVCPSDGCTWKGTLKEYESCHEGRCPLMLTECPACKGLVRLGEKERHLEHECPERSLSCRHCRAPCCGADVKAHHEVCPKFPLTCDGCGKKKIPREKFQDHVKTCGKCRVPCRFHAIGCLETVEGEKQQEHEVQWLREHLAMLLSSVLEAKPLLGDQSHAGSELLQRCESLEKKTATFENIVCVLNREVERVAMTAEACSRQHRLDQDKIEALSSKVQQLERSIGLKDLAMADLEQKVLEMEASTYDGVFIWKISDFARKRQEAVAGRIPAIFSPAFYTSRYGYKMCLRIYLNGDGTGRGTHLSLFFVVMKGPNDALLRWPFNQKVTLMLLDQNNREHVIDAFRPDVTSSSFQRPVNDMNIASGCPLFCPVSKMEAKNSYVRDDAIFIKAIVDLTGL
Assay: FRET or BRET
Conditions: remark: other sources report otherwise

B1: tumor necrosis factor receptor-associated factor 2 (TRAF2) fused to CFP, YFP or mRFP, Q12933 1-501 (natural protein)
chain: T1 chain
In the case of B1, the FRET1 (CFP→YFP) MFI, cells with CFP-TRAF2, YFP-TRAF2 and mRFP is reported as 10.9 MFI, the FRET3 (CFP→mRFP) MFI, cells with CFP-TRAF2, YFP and mRFP-TRAF2 is reported as 32.7 MFI and the stoichiometry N is reported as 3. It also gave a two-step FRET (CFP→YFP→mRFP) MFI, cells with CFP-TRAF2, YFP-TRAF2 and mRFP-TRAF2 of 58.6 MFI.
